# Data from publication PMC4082292, “Analysis of Y-P30/Dermcidin expression and properties of the Y-P30 peptide” (BMC Research Notes, 2014).
# Columns and labels:
# [1] = chemical stability; Y-P30 (aa 21-49) 2 μg/μl in PBS, room temperature, Eppendorf tube on bench shelf with regular light exposure; 24, 48, 72 h, 7 and 14 days; SDS-PAGE, immunoblot with rabbit anti-Y-P30; 13,5 μg per lane
# Procedure: (§1) Y-P30 (aa 21–49) was synthesized as described previously [1]. For measuring stability of the peptide in vitro, Y-P30 was diluted in PBS (2 μg/μl) and incubated at room temperature over 24, 48 and 72 hours as well as 7 and 14 days. Additionally, the effect of different denaturing agents (urea, 8 M; dithiothreitol (DTT), 50 mM and 100 mM; iodoacetamide, 50 mM) was studied with incubation times of 2 and 12 hours. Thereafter, 4x sample loading dye (containing 5% beta-mercaptoethanol and 8% SDS) was added to 1x final concentration, all samples were boiled for 5 min at 95°C and subjected to SDS-PAGE with subsequent immunoblotting using a rabbit anti-Y-P30 antibody described previously [1, 2].
# [2] = Oligomerization of synthetic Y-P30 and resistance to denaturing agents (SDS-PAGE/immunoblot); type: physicochemical; conditions: immunoblot
# Procedure: as §1
substance,measurement,setting,value
"Y-P30: synthetic survival promoting peptide, aa 21–49 of the human Y-P30/dermcidin precursor (DPEAASAPGSGNPCHEASAAQKENAGEDP; Survival-promoting peptide; UniProt P81605 21-49, looked up, fragment)",time for which the 15 kDA oligomer is stable,[1],at least 14 days
same,apparent size of SDS-resistant multimer of the synthetic peptide,"[2]; SDS-PAGE after boiling 5 min at 95°C in loading dye (5% beta-mercaptoethanol, 8% SDS at 4x), 10 μg per lane",10–15 kDa
same,resistance of the 10-15 kDa oligomer species to denaturing agents,"[2]; urea 8 M, DTT 50 mM and 100 mM, iodoacetamide 50 mM, incubation 2 h and 12 h (overnight), SDS-PAGE","resistant to urea, DTT and iodoacetamide"
